Experiments:
[1] = molecular target: T1, Human PD-1 on the cell surface (human, UniProt Q15116 25-288); experiment: cell-based or functional assay
[2] = molecular target: T1, Human PD-1 on the cell surface; experiment: cell-based or functional assay; remark: listed apart in the source
[3] = molecular target: T1, Human PD-1 on the cell surface; experiment: flow cytometry on CHO-K1 cells expressing human PD-1
[4] = molecular target: T2, Cynomolgus monkey PD-1 expressed on CHO-K1 cells (cynomolgus monkey, UniProt B0LAJ3 25-288); experiment: flow cytometry on CHO-K1 cells expressing cynomolgus monkey PD-1
T2 construct: also called Cyno PD-1; cell surface cynomolgus PD-1
T2 sequence (B0LAJ3 entry or part of it limits assumed): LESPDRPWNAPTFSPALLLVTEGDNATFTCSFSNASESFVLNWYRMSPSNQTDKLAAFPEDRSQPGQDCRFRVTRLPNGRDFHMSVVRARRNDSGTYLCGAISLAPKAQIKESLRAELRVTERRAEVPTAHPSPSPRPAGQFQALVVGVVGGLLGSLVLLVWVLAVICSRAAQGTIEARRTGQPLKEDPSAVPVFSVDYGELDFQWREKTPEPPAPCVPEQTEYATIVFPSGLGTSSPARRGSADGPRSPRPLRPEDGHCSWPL

[5] = molecular target: T3, Human PD-1 (SPR analyte/ligand; human PD-1 Fc fusion) (human, UniProt Q15116 25-167, limits assumed); experiment: SPR
T3 construct: not shown: Fc part of the fusion
T3 sequence (Q15116 25-167 limits assumed): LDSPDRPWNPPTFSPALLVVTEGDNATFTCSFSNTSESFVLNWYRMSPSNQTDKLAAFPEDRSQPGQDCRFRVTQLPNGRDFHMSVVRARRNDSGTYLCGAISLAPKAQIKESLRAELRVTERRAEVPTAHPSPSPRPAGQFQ

[6] = molecular target: T4, Cynomolgus monkey PD-1 (SPR analyte/ligand; cynomolgus monkey PD-1 Fc fusion) (cynomolgus monkey, UniProt B0LAJ3 25-170); experiment: SPR
T4 construct: also called Cyno PD-1
T4 sequence (B0LAJ3 entry or part of it limits assumed): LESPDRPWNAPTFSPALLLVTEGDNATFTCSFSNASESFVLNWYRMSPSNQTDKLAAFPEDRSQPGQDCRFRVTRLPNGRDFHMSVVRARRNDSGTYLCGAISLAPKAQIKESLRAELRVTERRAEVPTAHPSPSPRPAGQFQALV

T1 sequence (Q15116 25-288): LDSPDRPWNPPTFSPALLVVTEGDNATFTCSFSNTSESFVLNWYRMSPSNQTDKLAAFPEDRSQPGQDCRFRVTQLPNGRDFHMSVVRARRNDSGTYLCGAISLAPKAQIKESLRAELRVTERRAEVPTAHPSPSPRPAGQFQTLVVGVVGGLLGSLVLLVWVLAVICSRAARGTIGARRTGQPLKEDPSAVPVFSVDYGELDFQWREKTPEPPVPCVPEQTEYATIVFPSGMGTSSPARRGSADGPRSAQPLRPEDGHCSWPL

Binder | mean IL-2 stimulation ratio in fRO assay, Day 3, across all dose levels [1] | IL-2 stimulation ratio in fRO assay, 1 mg/kg, Baseline (n=6) [2] | IL-2 stimulation ratio in fRO assay, 1 mg/kg, Day 3 (n=6) [2] | IL-2 stimulation ratio in fRO assay, 1 mg/kg, Day 15 (n=6) [2] | IL-2 stimulation ratio in fRO assay, 1 mg/kg, Day 22 (n=2) [2] | IL-2 stimulation ratio in fRO assay, 1 mg/kg, Day 29 (n=2) [2] | IL-2 stimulation ratio in fRO assay, 3 mg/kg, Baseline (n=3) [2] | IL-2 stimulation ratio in fRO assay, 3 mg/kg, Day 3 (n=3) [2] | IL-2 stimulation ratio in fRO assay, 3 mg/kg, Day 15 (n=3) [2] | IL-2 stimulation ratio in fRO assay, 10 mg/kg, Baseline (n=4) [2] | IL-2 stimulation ratio in fRO assay, 10 mg/kg, Day 3 (n=3) [2] | IL-2 stimulation ratio in fRO assay, 10 mg/kg, Day 15 (n=1) [2] | EC50 [3] | EC50 [4] | Kd [5] | koff [5] | kon [5] | Kd [6] | koff [6] | kon [6]
exemplary humanized monoclonal anti-PD-1 antibody (human IGHG4*01 heavy chain with Ser to Pro hinge mutation at S228, human IGKC*01 kappa light chain; CDRs SEQ … (antibody, human IgG4 S228P, kappa, V domains shown, N-glycosylation at asparagine residue 293 (SEQ ID NO: 3)) VH: EVQLLESGGGLVQPGGSLRLSCAASGFTFSSYDMSWVRQAPGKGLEWVSTISGGGSYTYYQDSVKGRFTISRDNSKNTLYLQMNSLRAEDTAVYYCASPYYAMDYWGQGTTVTVSS VL: DIQLTQSPSFLSAYVGDRVTITCKASQDVGTAVAWYQQKPGKAPKLLIYWASTLHTGVPSRFSGSGSGTEFTLTISSLQPEDFATYYCQHYSSYPWTFGQGTKLEIKR | 1 ratio | 1.69 ratio | 1.01 ratio | 1 ratio | 1.32 ratio | 1.08 ratio | 1.62 ratio | 0.927 ratio | 0.977 ratio | 1.86 ratio | 1.05 ratio | 0.86 ratio |  |  |  |  |  |  |  | 
PD-1-binding agent (comprising SEQ ID NOs: 1 and 2) (antibody, V domains shown, It is probably the same humanized IgG4 (S228P)/kappa antibody as m2) VH: EVQLLESGGGLVQPGGSLRLSCAASGFTFSSYDMSWVRQAPGKGLEWVSTISGGGSYTYYQDSVKGRFTISRDNSKNTLYLQMNSLRAEDTAVYYCASPYYAMDYWGQGTTVTVSS VL: DIQLTQSPSFLSAYVGDRVTITCKASQDVGTAVAWYQQKPGKAPKLLIYWASTLHTGVPSRFSGSGSGTEFTLTISSLQPEDFATYYCQHYSSYPWTFGQGTKLEIKR |  |  |  |  |  |  |  |  |  |  |  |  | 2 nM | 3.4 nM | 0.3 nM | 0.00017 s⁻¹ | 570000 M⁻¹ s⁻¹ | 0.53 nM | 0.00023 s⁻¹ | 430000 M⁻¹ s⁻¹
